In US20180291096A1 (Janssen / Centocor, published 2018) one finds IC50 and Kd data, which are given here for 12 molecules.

B1: MOR05047 Fab (Fab, V domains shown)
VH: QVQLVESGGGLVQPGGSLRLSCAASGFTFSSFGMSWVRQAPGKGLEWVSNIEHKYLGYATSYAASVKGRFTISRDNSKNTLYLQMNSLRAEDTAVYYCARYWGTPYLMQFDNWGQGTLVTVSS
VL: DIALTQPASVSGSPGQSITISCTGTSSDVGGYNSVSWYQQHPGKAPKLMIYSVSSRPSGVSNRFSGSKSGNTASLTISGLQAEDEADYYCSSYDTNKPLVVFGGGTKLTVL
notes: Fab
B2: MOR05055 Fab (Fab, V domains shown)
VH: B1 VH with S61V
VL: B1 VL
notes: Fab
B3: MOR05060 Fab (Fab, V domains shown)
VH: QVQLVESGGGLVQPGGSLRLSCAASGFTFSSFGMSWVRQAPGKGLEWVSNISSSGSSTYYADSVKGRFTISRDNSKNTLYLQMNSLRAEDTAVYYCARYWGTPYLMQFDNWGQGTLVTVSS
VL: B1 VL with S91G, T95V, N96Y, K97G, P98R, L99F, V100Y
notes: Fab
B4: MOR05052 Fab (Fab, V domains shown)
VH: B1 VH with N50S, G57S, A59T, S61F
VL: B1 VL
notes: Fab
B5: MOR05056 Fab (Fab, V domains shown)
VH: B1 VH with N50S, G57S, S61Y, S65G
VL: B1 VL
notes: Fab
B6: MOR05063 Fab (Fab, V domains shown)
VH: B3 VH
VL: B1 VL with S91G, Y93W, T95P, N96I, K97F, P98S, L99Y, V100E
notes: Fab
B7: MOR05062 Fab (Fab, V domains shown)
VH: B3 VH
VL: B1 VL with S91Q, S92T, D94Y, T95F, N96S, K97Y, P98S, L99G, V100P
notes: Fab
B8: MOR05050 Fab (Fab, V domains shown)
VH: B1 VH with N50S, L56T, A59T, S61Y, S65P
VL: B1 VL
notes: Fab
B9: MOR05061 Fab (Fab, V domains shown)
VH: B3 VH
VL: B1 VL with D94Y, T95F, N96Y, K97L, P98Q, L99R, V100I
notes: Fab
B10: MOR05048 Fab (Fab, V domains shown)
VH: B1 VH with Y55F, L56M, A59T, S61Y, S65G
VL: B1 VL
notes: Fab
B11: MOR04205 Fab (Fab, V domains shown)
VH: QVQLVQSGAEVKKPGESLKISCKGSGYSFTNYWISWVRQAPGKGLEWMGWIRPGDSDTRYSPSFEGQVTISADKSISTAYLQWSSLKASDTAMYYCARHYYGMDYWGQGTLVTVSS
VL: DIVLTQPPSVSGAPGQRVTISCSGSSSNIGSYYVNWYQQLPGTAPKLLIYGNTHRPSGVPDRFSGSKSGTSASLAITGLQSEDEADYYCQTYASLGPGEVFGGGTKLTVL
notes: Fab
B12: MOR04217 Fab (Fab, V domains shown)
VH: QVQLVESGGGLVQPGGSLRLSCAASGFTFSSYWITWVRQAPGKGLEWVSYISSSGSSTYYADSVKGRFTISRDNSKNTLYLQMNSLRAEDTAVYYCARGTFWSFGNYFANWGQGTLVTVSS
VL: DIVLTQSPATLSLSPGERATLSCRASQSIFYNLAWYQQKPGQAPRLLIYGASNRATGVPARFSGSGSGTDFTLTISSLEPEDFATYYCQQYSSEPVTFGQGTKVEIK
notes: Fab

Substitutions are numbered along the chain they refer to.

The first test has as its target T1, recombinant human IL-23 (hrIL-23), produced at Centocor (human, UniProt P29460 23-328).
T1 construct: p19-p40 heterodimer; also called rhIL-23; huIL-23
T1 sequence 1: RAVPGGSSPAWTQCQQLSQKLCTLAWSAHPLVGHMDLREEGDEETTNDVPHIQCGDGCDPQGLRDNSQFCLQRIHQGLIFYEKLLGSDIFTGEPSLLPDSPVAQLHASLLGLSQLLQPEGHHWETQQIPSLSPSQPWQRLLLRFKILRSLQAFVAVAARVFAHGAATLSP
T1 sequence 2: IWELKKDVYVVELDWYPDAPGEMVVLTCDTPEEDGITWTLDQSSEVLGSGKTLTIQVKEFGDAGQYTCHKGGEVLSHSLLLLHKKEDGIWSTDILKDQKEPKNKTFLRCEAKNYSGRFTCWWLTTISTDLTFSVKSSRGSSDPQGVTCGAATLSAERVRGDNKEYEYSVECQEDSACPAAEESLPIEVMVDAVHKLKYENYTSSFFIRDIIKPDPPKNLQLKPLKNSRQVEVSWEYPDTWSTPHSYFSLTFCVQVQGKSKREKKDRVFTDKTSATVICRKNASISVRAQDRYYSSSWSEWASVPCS
Description: IL-23/IL-23R competition assay.
What is called IC50 is the concentration that inhibits the measured activity by half. Turning to B1, the IC50 was found to be 0.13 nM.
As to B2, the IC50 turned out to be 0.79 nM.
In the case of B3, the IC50 was found to be 1 nM.
For the molecule B4, the IC50 worked out at 0.58 nM.
With B5, the IC50 was found to be 0.52 nM.
B6: the IC50 turned out to be 0.32 nM.
In the case of B7, the IC50 is 1.34 nM.
Take B8: the IC50 amounted to 0.89 nM.
Still for that read-out and setting: with B9 the figure was 1.25 nM.
Turning to B10, the IC50 was determined as 0.1 nM.

The target in the next test is T1, recombinant human IL-23 (hrIL-23), …. The test can be described thus: SET.
Broadly, the Kd is the equilibrium constant for the complex coming apart. Regarding B1, the Kd turned out to be 0.036 nM.
On to B2, for which the dissociation constant (Kd) is 0.029 nM.
Consider B3, for which the Kd amounted to 0.142 nM.
For B4, the Kd stood at 0.01 nM.
Consider B5, for which the Kd stood at 0.065 nM.
For B6, the dissociation constant Kd was determined as 0.069 nM.
For B7, the Kd came to 0.098 nM.
B8: the Kd was 0.023 nM.
B9: the Kd stood at 0.058 nM.
On to B10, for which the Kd was found to be 0.02 nM.

A further test shares this target. Description: hrIL-23/hIL-23R competition assay.
With B11, the IC50 was found to be 38 nM.
For the molecule B12, the IC50 was 16 nM.

The target is the same in another test. Description: Biacore, Fab capture. For orientation: SPR reads the build-up and loss of mass on a sensor chip optically.
For B11, the Kd was 140 nM.
Turning to B12, the Kd came out at 41 nM.
